The DeepSol protein solubility set

test: soluble on expression in E. coli; label from the status in PepcDB or PDB records

Sequence	soluble on expression in E. coli
MGSDKIHHHHHHMAFILMQNINKTFHGVKALNRVNLSLDYGEALCLAGQNGCGKSTLIKILSGVYQPDKGAEIQIGASKYTKLTPQASIEQGIQVIYQDLALFPNLTVAENIAINLHRKLGWVSQSEIHQVALNAILSINADLDLNAILEDLPIAQQQLVAICRALAQNARLLIMDEPTASLTAKEVQDLLKVVLKLKSKGISIIFVSHKLQEVMSVSDTVLVLKNGNMVGQYPISEMDEKRLGFLMTGLEIDYKRLDLPDFSQNRTVLEVQNLTLPNQYESINFSLREGEIIALTGLLGSGRTELCLSLFGITQPKSGDILLNGEKVIFQNNRDAIKQGIAYVSEDRMTTGLIMTESIHHNIISTIFHKITDKFNIIKSSKAYNYSQELIESLKIKVTDSDLPVNTLSGGNAQRVSIAKWLAIDPRIIILDAPTIGVDIANKEGIFQIIRTLAQKGIAVIFVTDEVEEAYYNSHKVIVMKKGKIVGEILPIYTTEKSIAEVVYENHQ	not soluble
MGSDKIHHHHHHMAFNLDALASVVVDDSIKGIPFGARLGIADIANQGWNVLAGDLPLPAAIIRADALAHNSRWMQRFVSERGALIAPHVKTTMCPQIIARQIADGAWGVTVATVQQMRVCRNFGADRIILANQAVGRSELDAITAMVKEPDLDFMMIVDSAVGIEAAAEAVRRNRLDRPLQLLLERGYPGGRTGCRTNDIALALARQIRATPELRLVGIEAFEGLIQTENGSPEQAVGLFMDEIAALFGLCADDGLFESDAPLVTAGGSSHYDIVIDRLAHCTARVVTRSGCYVTHDSGLYRIAHQRLQAKIGEQDGLRRALEIWTYVQSIPEPGLALLTAGRRDCGTDSGFPVPLLLSSAGAYPRDLPPGCEVINLNDQHAYMRFPPDLPLAVGDRVGLGISHPCTTFDKWQIIYLVDSDYRVIEAMKTFF	not soluble
MGSDKIHHHHHHMAFSFDSRIRYSEVDSSCRLSLTGLTNYFQDCSVFHSQSHDVGIRFLADNHIAWVLSSWQICINRLPLLNEQVKISTWAYGMKAFYGYRNFTLEDAGGSTLAYANSVWVLVDTRTGRPVKVPQEFADTYGLEPQLEMECAKRKLHIPDDMEKKGEIVVPQFFIDSNHHMNNEKYVMLAQQLLPNDFEISELRVEYRKEAKLGDTVISYVKYTSKSVTVVLADTDKKPYSVVEFLSKPVPGK	not soluble
MGSDKIHHHHHHMAFYPVHKELQNISQSMPQGNFGLWYNKFIPLSDDAFKPSDDKGSNGKGDENRPVDYYFGQYSKLRLNAAETAAILKQKHEDMDDFCANFPPQKYEEIAICATLDSPLITGIGESHPHEVSMVFDHNMGIPYIPASGVKGIVRFAHTISLIPEAMNKAEVIDNVRFDDEADWTSVPHMFGTQKNRGNVIFLDAYPEDIPALHMDIMNPHYSPYYSEGKPPADHHNPTPIKFLTVAKGTKFIFRAVAKKEQNLPQKIRVAFAEALTKEGVGAKIALGYGRFVIDEDGQKVLLKKRKQRHEEKKRRLSPWLDYIELINQVGDWGQFKQIVLDNEKLVEYRKEMDVTEAVRIKALEIRNKWRKSWGASRDEQIATWLQPAGVEWPCIVAGIENPVKEKSADYEKIMQLIDWGAYKSAGIDLSKLPLDALQLLKQKMEEWGCYSKKAKEDKKTAFKKVKDLLRQHQK	not soluble
MGSDKIHHHHHHMAHADIFNAIYTNKVWGNGSGEGSAEELTRDYRKFLHNFLRANHIRSVVDLGCGDWQFSRHMDWSGIEYCGIDVSSVVLETTRNFSAPNIRFQEMNGIEGELPSADLLICKDVVQHWSNTDILQLFPKLPRFRLALITNAFHPAITENQDIVTGDFRPLNLLAKPFDIKGSYIYCFMAGEPKGVFLWSRGD	not soluble
MGSDKIHHHHHHMAKAKTQFVCSNCGYSTPRYLGRCPNCGEWNTLTEEHFDTKPDRKSRVSFAGKSAKPQRLKEVSLTKTPRVKTKLKEFNRVLGGGVVPGSLVLIGGDPGIGKSTLLLQVSGQLAETGGSVLYVTGEESASQVKMRADRLAVSSEDFYLYPETDMSNIRSTIESTHPEFVVIDSVQTMQEPDMDSAIGSVSQIREITAELLQIAKTNGITIFIVGHVTKGGAIAGPKILEHMVDTVLYFEGDLHHTYRILRAVKNRFGSTNELGIFEMRTGGLYEVANPSEIFLEERLKDATGSAIVVSMEGTRPILVEVQALVTPTVFGNAKRTASGLDHNRVSLIMAVLEKRASLMLQNQDAYLKAAGGVKLDEPAIDLAIAVSVASSYRDQQTRPSDCFVGEVGLTGEIRRVNRIESRVGEAAKLGFKRIFIPKNNLQGWDIPTGIEVIGVATLKEALQLALQQPNY	not soluble
MGSDKIHHHHHHMAKIAYILLCHKDPDAIIMQAERLTAAGDYMSIHFDARARKADFARIRKALADNPNVTFARRRIKCGWGEWSLVQATLNAIEAAVDEFPRATHFYMLSGDCMAIKTAEYAHSFLDAQDKDYIESFDYFESDWIKTGWKEERLIYRHWFNERTQKRRFYAMFQAQKRLGLTREIPSDIQVMIGSQWWCLRRRTIEWILDFTRKRRDVMQFFATTWIPDETFFQTLVRHLIPEDEIDPRTLTFLMFSDYGMPVSFYNDHYDLLLSQDFLFARKISPEAKELKARLGRLYAAHGVQFQISNEGRNLYKFLTGRGRIGRRFSMRFWETESTLGRERELMILVCKKWHVAKRLLDQIRQVTNVPSIEYLFNEEGTPLPDLGGIQATLEKRTRHRRALMRMLFEYFDTDRLVICLDPTNLELMHDFFSDRSVTRMLEIECQFTDEYLIGHSYRVGLAGERTPKATLERLLPTIRNEMTYEADRIRDAGFARYGRIHQTSTPEENADKVAEFLSIPWDQALRITQTDHLFAD	not soluble
MGSDKIHHHHHHMALEPQIKSAPTPVILIVEPYGGSIRQQNPNLPMVFWDDAALTRGDGIFETLLIRDGHACNVRRHGERFKASAALLGLPEPILEDWEKATQMGIESWYSHPNAGEASCTWTLSRGRSSTGLASGWLTITPVSSDKLAQREHGVSVMTSSRGYSIDTGLPGIGKATRGELSKVERTPAPWLTVGAKTLAYAANMAALRYAKSNGFDDVIFTDGDRVLEGATSTVVSFKGDKIRTPSPGGDILPGTTQAALFAHATEKGWRCKEKDLSIDDLFGADSVWLVSSVRGPVRVTRLDGHKLRKPDNEKEIKALITKALG	not soluble
MGSDKIHHHHHHMALSADSRLQFTSDLNICRILNGMWQVSGGHGKINAPAAIKTMFQYVDAGFTTWDLADHYGPAEDFIGEFRRQLVANRGKEALANIQAFTKWVPRPGRMTKKLVEENIDISRRRMDVESLDLMQFHWWDYQDKNYLDALKYMAELQTEGKIKHLALTNFDTEHLQIITEAGIKIVSNQVQFSLVDRRPEVNMVKFCQQHDIKLFTYGTLCGGLLSEKYIGKPEPRGFDLGTTSLRKYKNMVDAWGGWHLFQELLSTLKQIADKHGVSIANVATRYILDKPAVGGVIVGARLGISEHIADNAKVFSFTLDAEDSNVINTISSQSRDLYQLIGDCGDEYRR	not soluble
MGSDKIHHHHHHMALWQYSFRGGDDMKFAHLERLNLTLRALAPVFIGSGEQLGKKEYIFDSPNALIYFPDFPRLVAFLKERSLLAEYEKFLSTPRLKDIRVFLEENGISAADYPSFVRYSIAAGEAAHIENFREVLTFIKDSKGYPYIPGSSLKGAIRTALATYLLKRGDWERDRRNIEGSDSSVPARKYLARESSTVEKKVFYQLDIRNPKDGKEISSPINDLMQGIRISDSAALSFENLTLTGKYDRKPDGTVNLLPIFRECLTPGSEAHLQLTLDLPMLARVGLNAGIIEEALHDFADEHYAHFEQYFAELPEDASVAAKEGVDIFLGGGVGYVSKTLTYNLFPQRENAVSLAAKILTKQFSPKHGHSKDASQYKVSPHILKTTMYAGEYYHMGKCELIITR	not soluble
MGSDKIHHHHHHMANFIEKITYLGTPAIKAGNEHLEMIVVPEWGSNVISLVDKTTNVQLLREPETAESFHDTPTLYGIPILFPPNRISDGTFSFRGRTYHFDINEKDKHNHLHGFLYHEKWNVVTTKQTDEGVIVETEIDLSELPHVQKQFPHHAVVRMTYTIKENTLFKHATVMNKGKEAFPWGIGYHTTFIFPAESSLFSLTADQQWELDERLLPTGKLMDVPYKEALHEGMDLRHKQLDDVFLSSYQKRGGENQAVIYHQHAHISIIYKADEQFKHWVVYNADGKQGYLCPEPYTWVTNAVNLDLPSSLTGLQVLEPGEETTAKSSITIELNHQ	not soluble
